Paper PMC10376177

Legend:
Experiment in all cases: native gel or EMSA
[1] = target: CthedisKatG W90V (Chaetomium thermophilum var. dissitum)
[2] = target: CthedisKatG, thermophilic catalase–peroxidase from Chaetomium thermophilum var. dissitum (wild type) (Chaetomium thermophilum var. dissitum)
[3] = target: CthedisKatG W90F (Chaetomium thermophilum var. dissitum)

Question: CthedisKatG W90V (enzyme) was tested. Which stoichiometry N [1] did it give?
Answer: 2

Question: Which stoichiometry N [2] does the source give for “CthedisKatG, thermophilic catalase–peroxidase from Chaetomium thermophilum var. dissitum (wild type) (enzyme)” here?
Answer: 2

Question: Which stoichiometry N [3] does the source give for CthedisKatG W90F (enzyme) here?
Answer: 2
